What was measured:
[1] = target: Pertuzumab-specific HER2 antigen (Rhinogen®); assay: SPR, Biacore T200; IgG captured by anti-human Fc on CM5 chip, antigen flowed over
[2] = target: Pertuzumab-specific HER2 antigen (Rhinogen®); assay: ELISA; antigen coated at 2 µg/ml, HRP anti-human light chain detection

Question: Pertuzumab (antibody) was tested. Which Kd [1] did it give?
Answer: The Kd was 2.81 nM.

Question: What about the EC50 [2] of the same substance?
Answer: Its EC50 is 0.0153 µg/mL.

Source: patent US20220143178A1
